Results reported in the supplement of paper PMC10724198.
± gives the standard deviation of the averaged measurements.

Test system: Saccharomyces cerevisiae
Assay: protein stability index of tFT-peptide fusion (C-terminal peptide) (PSI (0-1 scale)); higher = more stable (slower turnover)
Details: genetic background: wild type; temperature: 30 C
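Further: PSI is a weighted mean of sequencing reads over stability bins, variants kept only with over 10 reads, mCherry proximal and sfGFP distal, peptide attached via GGGS linker.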

Sequence	protein stability index
VLGRRGLVWKRV	0.5993 ± 0.0033
VLHFIFLCRCPV	0.497 ± 0.011
VLICGLNYLSLC	0.64 ± 0.022
VLIEWKGSREKY	0.824 ± 0.21
VLIRRLPFTSYL	0.6365 ± 0.0034
VLKGIVKQTRRG	0.685 ± 0.058
VLKRYILRNEKD	0.697 ± 0.027
VLLARVRRSSDS	0.649 ± 0.093
VLLGFSDYLRVT	0.698 ± 0.079
VLLGTVRCCFLG	0.556 ± 0.022
VLLLRPTPPLFH	0.663 ± 0.046
VLLLSRPLFPFS	0.669 ± 0.031
VLLMRSARTAGA	0.69 ± 0.021
VLLRKLLCPGYV	0.598 ± 0.016
VLLRRRASSISG	0.671 ± 0.043
VLPHFSLSTPSP	0.7493 ± 0.0052
VLQEFTFPKVGL	0.675 ± 0.015
VLSGPQVVWSES	0.679 ± 0.017
VLSLLGVLFCLF	0.634 ± 0.028
VLSPVFLISLFS	0.552 ± 0.016
VLTSLVRGVFTG	0.632 ± 0.069
VLVSVSVPLRGR	0.78 ± 0.1
VLWIWRGFRGLG	0.626 ± 0.011
VMAVARIEVKMR	0.587 ± 0.024
VMGYCNWCVIRQ	0.694 ± 0.054
VMWNLVCLRRSQ	0.6271 ± 0.0012

Sequence	protein stability index
VNEEGCDILVRT	0.757 ± 0.013
VNPAFRTSICHH	0.584 ± 0.12
VNTISRKIPPIA	0.648 ± 0.041
VNVSLFWFGTYL	0.61 ± 0.054
VPEVRRTDGRVR	0.74 ± 0.014
VPFGPLRPALYL	0.708 ± 0.018
VPGASSSLSSSP	0.667 ± 0.077
VPLPGAAGATLL	0.773 ± 0.091
VPLPLVPCARIY	0.627 ± 0.0093
VPLYVDLYLSGA	0.721 ± 0.043
VPNTFVGVLICP	0.607 ± 0.026
VPPFGPTPLASI	0.797 ± 0.073
VPPHLLLSLSPP	0.635 ± 0.02
VPPRPPLPPRPP	0.625 ± 0.027
VPPSYDLPLFPF	0.632 ± 0.013
VPSAFLYLVGSL	0.591 ± 0.01
VPSANAQTPSTC	0.717 ± 0.071
VPSGVWGVLGFA	0.667 ± 0.048
VPSPFIPVSPTL	0.669 ± 0.012
VPSSCFLLDLPP	0.648 ± 0.047
VPSSVLIPRPLF	0.72 ± 0.081
VPVITLGSRISG	0.658 ± 0.0088
VQDFTFLLPLAP	0.692 ± 0.17
VQSSLSDFYVSS	0.707 ± 0.061
VQSVDVLLISSL	0.642 ± 0.032
VQSWGGRGMVVW	0.719 ± 0.036

Sequence	protein stability index
VQTHPFWFPTLL	0.573 ± 0.07
VRARSTSCGIWC	0.692 ± 0.045
VRARTAFVPLPA	0.727 ± 0.097
VRATSMWRSRGR	0.688 ± 0.053
VRDLDMEEISRY	0.727 ± 0.05
VRDLGSPFIVYR	0.64 ± 0.059
VRGLGFVSWFFL	0.651 ± 0.025
VRGRVGYFIVRK	0.642 ± 0.044
VRGSLGQGNDTA	0.706 ± 0.03
VRINNIGKRVNR	0.706 ± 0.025
VRKGSERKKAGN	0.6686 ± 0.0043
VRPQHIITSGSC	0.739 ± 0.15
VRRGGGVGGYGI	0.734 ± 0.084
VRRRANVRVLRD	0.688 ± 0.077
VRRRKLAKCEVN	0.474 ± 0.058
VRRTRGGLRGWS	0.6987 ± 0.0053
VRRWAVSSAFVG	0.628 ± 0.054
VRWTVAWAVGAT	0.689 ± 0.12
VRYGQRGTFGLL	0.6901 ± 0.0019
VSAPLGRFSGLV	0.685 ± 0.036
VSDMILSATFCM	0.643 ± 0.042
VSDVIPRSRCVR	0.6884 ± 0.0024
VSGCVCAAADVL	0.696 ± 0.027
VSGCVMIYGRTV	0.724 ± 0.027
VSGSVVLHTVIP	0.658 ± 0.017
VSGVLPGALFPL	0.684 ± 0.053

Sequence	protein stability index
VSGYGSSQDDVR	0.6397 ± 0.0056
VSIGGLLGCVLF	0.692 ± 0.048
VSMSACSPGGMS	0.646 ± 0.02
VSNKWATANKYG	0.644 ± 0.051
VSPGLFRSPPHY	0.664 ± 0.011
VSPLPSPVPLLP	0.69 ± 0.076
VSPNSFVGRPCF	0.717 ± 0.072
VSPSPIPSMPVI	0.71 ± 0.078
VSREWNVSIDVF	0.495 ± 0.027
VSRGGMSGIVCL	0.773 ± 0.11
VSRGIFSGRGGV	0.736 ± 0.018
VSSCLHDYSAIY	0.744 ± 0.029
VSSTFGQDTSKR	0.715 ± 0.024
VSVVVGLLFVGF	0.5 ± 0.065
VSWLSTKCWTIL	0.563 ± 0.038
VSYLLPPPPPPP	0.682 ± 0.046
VTGDRGGVRGGE	0.685 ± 0.012
VTHNTLLRTKVV	0.518 ± 0.0069
VTLRLCGQSVVV	0.585 ± 0.0085
VTLWQLANNTLG	0.626 ± 0.028
VTNVTSETRVLT	0.6816 ± 0.0013
VTPLPHPPLPPP	0.756 ± 0.089
VTPPGFTYVLEV	0.619 ± 0.058
VVAFSLLSGFLV	0.636 ± 0.04
VVALHYNYFSRL	0.613 ± 0.09
VVDSGLFLAASR	0.643 ± 0.08

Sequence	protein stability index
VVDWRRAAKREG	0.685 ± 0.051
VVFLWGVFGGSI	0.688 ± 0.055
VVGAGGLCNMDV	0.635 ± 0.029
VVGDGVWCLSVG	0.721 ± 0.046
VVGRLERRLREQ	0.674 ± 0.017
VVLGFGPRFRVV	0.584 ± 0.018
VVLGLWGLCCGC	0.527 ± 0.029
VVLVGVVGGMVG	0.639 ± 0.018
VVRGKRRVRWLR	0.625 ± 0.049
VVSFGRIGGVGR	0.675 ± 0.027
VVSIIQDITLIS	0.7094 ± 0.0034
VVTEKLKRAARA	0.669 ± 0.021
VVVGRWSVLSSV	0.522 ± 0.017
VVVLGVGGVGWW	0.704 ± 0.019
VVWKRALWGEGL	0.791 ± 0.073
VWGGYGQFYGWK	0.606 ± 0.049
VWLGEYGVGCSV	0.655 ± 0.048
VWRVGRARGQMG	0.6953 ± 0.0017
VWSVDVSGCVVR	0.641 ± 0.031
VWVWHGAVLMGG	0.527 ± 0.017
VYASMFRAAWPF	0.746 ± 0.076
VYMAGSFSRLFQ	0.723 ± 0.034
VYSDSCLLRKTT	0.695 ± 0.02
VYTEFWERQGLL	0.796 ± 0.051
WACGYLGSTILS	0.643 ± 0.067
WAGSGCECTGGG	0.705 ± 0.0031

Sequence	protein stability index
WAGVTLRLRSAV	0.682 ± 0.055
WANGEFSLGCGG	0.712 ± 0.017
WCGWGGVACLLL	0.681 ± 0.023
WCLNMLLIPSMY	0.605 ± 0.021
WCPGAGGAVVVV	0.658 ± 0.073
WCWVGRFVGLVR	0.447 ± 0.11
WDEDGIFDAGGA	0.6 ± 0.041
WDHGDHTAMVSI	0.683 ± 0.019
WEAPCGGTLVGR	0.697 ± 0.048
WEWFKWRDHNRY	0.803 ± 0.037
WFCFGSFILCLL	0.492 ± 0.028
WFLLTSSTSRPP	0.737 ± 0.059
WGAAGRAGTERH	0.682 ± 0.029
WGCVGVVGLFSG	0.656 ± 0.047
WGEKTRKVQGCG	0.695 ± 0.066
WGGGGGRKVSVG	0.67 ± 0.082
WGGGGGWSGACL	0.6909 ± 0.0059
WGGGGLRGGWDG	0.738 ± 0.03
WGGGGLVVFGWK	0.698 ± 0.011
WGGGGVRGGMGG	0.781 ± 0.043
WGGGVLRRRVGA	0.752 ± 0.055
WGGLSRCAGVWL	0.632 ± 0.034
WGGSGGREPGGS	0.753 ± 0.066
WGGYSLKFRTRR	0.705 ± 0.0025
WGLGGVCAVRGS	0.575 ± 0.094
WGLGLLGGCWGV	0.679 ± 0.09

Sequence	protein stability index
WGPGGVAWGAWW	0.7837 ± 0.0022
WGPPPPYSPFSL	0.713 ± 0.0089
WGPVPWWFGWMG	0.678 ± 0.027
WGRCLGWAGPAG	0.788 ± 0.11
WGRCVRGGRPWG	0.567 ± 0.021
WGRGLESVKGGG	0.727 ± 0.018
WGTSGAMRGTEG	0.683 ± 0.022
WGVGWGMVEGWR	0.701 ± 0.019
WGVSVVEGGRSG	0.736 ± 0.093
WGWGGGRDGCGV	0.643 ± 0.1
WGWGGVRGGMGG	0.796 ± 0.08
WGWVLVGVGGLV	0.576 ± 0.091
WHEHGGVGTYFI	0.6743 ± 0.0043
WIFHHSKTTLAP	0.7158 ± 0.0052
WKGEMRDDGGRR	0.687 ± 0.041
WKGEREKQGKEG	0.589 ± 0.084
WKKDTKTKKKKN	0.695 ± 0.034
WKKSEKTEHEQI	0.653 ± 0.12
WKQKRGTHNIKD	0.722 ± 0.011
WLFLCWCFFCCL	0.597 ± 0.12
WLGLGGARGCML	0.745 ± 0.057
WLNMKFRTLCGS	0.634 ± 0.038
WLPRPHPPLRPA	0.724 ± 0.08
WLRPRSFSVVAT	0.52821 ± 0.00016
WLSMLLTVAPHH	0.64278 ± 0.00026
WLTCICSSVAPL	0.698 ± 0.042

Sequence	protein stability index
WLVGEWPGRWGR	0.728 ± 0.037
WMSFLARVVTFE	0.716 ± 0.025
WMSVCCRSALVD	0.65 ± 0.011
WMTFKKLQCNRT	0.682 ± 0.027
WNGIDQSMSGRR	0.694 ± 0.099
WPHAPSLPRFSG	0.69 ± 0.018
WPLSYLPLSSPP	0.701 ± 0.01
WPRVCPFSLYDA	0.723 ± 0.012
WRQRLKTNNITT	0.733 ± 0.018
WRRPKAGRHAPC	0.685 ± 0.0065
WRSGRGRCAVSQ	0.721 ± 0.045
WRTPVCSPFLLG	0.691 ± 0.0053
WSCTPRTPPPPR	0.7925 ± 0.002
WSESVKEASFTS	0.756 ± 0.028
WSFGRWGGAGAR	0.629 ± 0.044
WSFSSGCWGYVG	0.6281 ± 0.0036
WSGGAGGGGRLG	0.645 ± 0.088
WSIWRLPSFEWV	0.741 ± 0.04
WSKEQRRGGCGQ	0.714 ± 0.015
WSLIARYSPCHF	0.67 ± 0.027
